The results in this text go back to patent US20130224798A1.

The experiment addresses Toll-like Receptor 5 (TLR5) constitutively expressed by HEK293 cells (UniProt O60602). Kind of experiment: cell-based or functional assay.

Residue numbers refer to the chain shown, from its start.

B1: STF2.HA1-2mutHis(PR8), produced in Baculovirus (protein)
chain: AQVINTNSLSLLTQNNLNKSQSALGTAIERLSSGLRINSAKDDAAGQAIANRFTANIKGLTQASRNANDGISIAQTTEGALNEINNNLQRVRELAVQSANSTNSQSDLDSIQAEITQRLNEIDRVSGQTQFNGVKVLAQDNTLTIQVGANDGETIDIDLKQINSQTLGLDSLNVQKAYDVKDTAVTTKAYANNGTTLDVSGLDDAAIKAATGGTNGTASVTGGAVKFDADNNKYFVTIGGFTGADAAKNGDYEVNVATDGTVTLAAGATKTTMPAGATTKTEVQELKDTPAVVSADAKNALIAGGVDATDANGAELVKMSYTDKNGKTIEGGYALKAGDKYYAADYDEATGAIKAKTTSYTAADGTTKTAANQLGGVDGKTEVVTIDGKTYNASKAAGHDFKAQPELAEAAAKTTENPLQKIDAALAQVDALRSDLGAVQNRFNSAITNLGNTVNNLSEARSRIEDSDYATEVSNMSRAQILQQAGTSVLAQANQVPQNVLSLLASGSGSGSKGAAPLQLGKCNIAGWLLGNPECDPLLPVRSWSDIAETPNSENGICYPGDFIDYEELREQLSSVSSFERFEIFPKESSWPNHNTNGVTAACSHEGKSSFYRNLLWLTEKEGSYPKLKNSYVNKKGKEVLVLWGIHHPPNSKEQQNLYQNENAYVSVVTSNYNRRFTPEIAERPKVRDQAGRMNYYWTLLKPGDTIIFEANGNLIAPMYAFALSRGFGSGIITSHHHHHH
In the case of B1, the TLR activity (EC50, ng/ml) was 900 ng/mL.

B2: STF2.HA1-2His(PR8), produced in Baculovirus (protein)
chain: AQVINTNSLSLLTQNNLNKSQSALGTAIERLSSGLRINSAKDDAAGQAIANRFTANIKGLTQASRNANDGISIAQTTEGALNEINNNLQRVRELAVQSANSTNSQSDLDSIQAEITQRLNEIDRVSGQTQFNGVKVLAQDNTLTIQVGANDGETIDIDLKQINSQTLGLDSLNVQKAYDVKDTAVTTKAYANNGTTLDVSGLDDAAIKAATGGTNGTASVTGGAVKFDADNNKYFVTIGGFTGADAAKNGDYEVNVATDGTVTLAAGATKTTMPAGATTKTEVQELKDTPAVVSADAKNALIAGGVDATDANGAELVKMSYTDKNGKTIEGGYALKAGDKYYAADYDEATGAIKAKTTSYTAADGTTKTAANQLGGVDGKTEVVTIDGKTYNASKAAGHDFKAQPELAEAAAKTTENPLQKIDAALAQVDALRSDLGAVQNRFNSAITNLGNTVNNLSEARSRIEDSDYATEVSNMSRAQILQQAGTSVLAQANQVPQNVLSLLASGSGSGSKGIAPQLGKCNIAGWLLGNPECDPLLPVRSWSYIVETPNSENGICYPGDFIDYEELREQLSSVSSFERFEIFPKESSWPNHNTNGVTAACSHEGKSSFYRNLLWLTEKEGSYPKLKNSYVNKKGKEVLVLWGIHHPPNSKEQQNLYQNENAYVSVVTSNYNRRFTPEIAERPKVRDQAGRMNYYWTLLKPGDTIIFEANGNLIAPMYAFALSRGFGSGIITSHHHHHH
The molecule B2 registered a TLR activity (EC50, ng/ml) of 9 ng/mL.

B3: ngSTF2.HA1-2mutHis(PR8), produced in Baculovirus (protein)
chain: B2 chain with N18Q, N100Q, N193Q, N215Q, N392Q, N456Q, N475Q, I515A, Y545D, V547A
In turn, B3 displayed a TLR activity (EC50, ng/ml) of 9 ng/mL.

B4: STF2.EIII+ (protein)
chain: MAQVINTNSLSLLTQNNLNKSQSALGTAIERLSSGLRINSAKDDAAGQAIANRFTANIKGLTQASRNANDGISIAQTTEGALNEINNNLQRVRELAVQSANSTNSQSDLDSIQAEITQRLNEIDRVSGQTQFNGVKVLAQDNTLTIQVGANDGETIDIDLKQINSQTLGLDSLNVQKAYDVKDTAVTTKAYANNGTTLDVSGLDDAAIKAATGGTNGTASVTGGAVKFDADNNKYFVTIGGFTGADAAKNGDYEVNVATDGTVTLAAGATKTTMPAGATTKTEVQELKDTPAVVSADAKNALIAGGVDATDANGAELVKMSYTDKNGKTIEGGYALKAGDKYYAADYDEATGAIKAKTTSYTAADGTTKTAANQLGGVDGKTEVVTIDGKTYNASKAAGHDFKAQPELAEAAAKTTENPLQKIDAALAQVDALRSDLGAVQNRFNSAITNLGNTVNNLSEARSRIEDSDYATEVSNMSRAQILQQAGTSVLAQANQVPQNVLSLLRKGNSKLEGQLEFPRTSMEKLQLKGTTYGVCSKAFKFLGTPADTGHGTVVLELQYTGTDGPCKVPISSVASLNDLTPVGRLVTVNPFVSVATANAKVLIELEPPFGDSYIVVGRGEQQINHHWHKSGSSIGK
In turn, B4 registered a TLR-5 EC50 (batch 052) of over 5000 ng/mL, a TLR-5 EC50 (batch 054) of 1200 ng/mL and a TLR-5 EC50 (batch 057) of 198 ng/mL.

B5: STF2.HA1-2(PR8), produced in E. coli (protein)
chain: MAQVINTNSLSLLTQNNLNKSQSALGTAIERLSSGLRINSAKDDAAGQAIANRFTANIKGLTQASRNANDGISIAQTTEGALNEINNNLQRVRELAVQSANSTNSQSDLDSIQAEITQRLNEIDRVSGQTQFNGVKVLAQDNTLTIQVGANDGETIDIDLKQINSQTLGLDSLNVQKAYDVKDTAVTTKAYANNGTTLDVSGLDDAAIKAATGGTNGTASVTGGAVKFDADNNKYFVTIGGFTGADAAKNGDYEVNVATDGTVTLAAGATKTTMPAGATTKTEVQELKDTPAVVSADAKNALIAGGVDATDANGAELVKMSYTDKNGKTIEGGYALKAGDKYYAADYDEATGAIKAKTTSYTAADGTTKTAANQLGGVDGKTEVVTIDGKTYNASKAAGHDFKAQPELAEAAAKTTENPLQKIDAALAQVDALRSDLGAVQNRFNSAITNLGNTVNNLSEARSRIEDSDYATEVSNMSRAQILQQAGTSVLAQANQVPQNVLSLLAKGIAPLQLGKCNIAGWLLGNPECDPLLPVRSWSYIVETPNSENGICYPGDFIDYEELREQLSSVSSFERFEIFPKESSWPNHNTNGVTAACSHEGKSSFYRNLLWLTEKEGSYPKLKNSYVNKKGKEVLVLWGIHHPPNSKEQQNLYQNENAYVSVVTSNYNRRFTPEIAERPKVRDQAGRMNYYWTLLKPGDTIIFEANGNLIAPMYAFALSRGFGSGIITS
In turn, B5 displayed a TLR5 activity (EC50, ng/ml) of 0.15 ng/mL.

B6: STF2.HA1-2(PR8)mut, produced in E. coli (protein)
chain: B5 chain with I509A, Y540D, V542A
With B6, the TLR5 activity (EC50, ng/ml) came to 1.2 ng/mL.

B7: STF2.HA1-1His(PR8), produced in E. coli (protein)
chain: MAQVINTNSLSLLTQNNLNKSQSALGTAIERLSSGLRINSAKDDAAGQAIANRFTANIKGLTQASRNANDGISIAQTTEGALNEINNNLQRVRELAVQSANSTNSQSDLDSIQAEITQRLNEIDRVSGQTQFNGVKVLAQDNTLTIQVGANDGETIDIDLKQINSQTLGLDSLNVQKAYDVKDTAVTTKAYANNGTTLDVSGLDDAAIKAATGGTNGTASVTGGAVKFDADNNKYFVTIGGFTGADAAKNGDYEVNVATDGTVTLAAGATKTTMPAGATTKTEVQELKDTPAVVSADAKNALIAGGVDATDANGAELVKMSYTDKNGKTIEGGYALKAGDKYYAADYDEATGAIKAKTTSYTAADGTTKTAANQLGGVDGKTEVVTIDGKTYNASKAAGHDFKAQPELAEAAAKTTENPLQKIDAALAQVDALRSDLGAVQNRFNSAITNLGNTVNNLSEARSRIEDSDYATEVSNMSRAQILQQAGTSVLAQANQVPQNVLSLLASHNGKLCRLKGIAPLQLGKCNIAGWLLGNPECDPLLPVRSWSYIVETPNSENGICYPGDFIDYEELREQLSSVSSFERFEIFPKESSWPNHNTNGVTAACSHEGKSSFYRNLLWLTEKEGSYPKLKNSYVNKKGKEVLVLWGIHHPPNSKEQQNLYQNENAYVSVVTSNYNRRFTPEIAERPKVRDQAGRMNYYWTLLKPGDTIIFEANGNLIAPMYAFALSRGFGSGIITSNASMHECNTKCQTPLGAINSSLPYQNIHPVTIGECPKYVRHHHHHH
Molecule B7 came in with a TLR5 activity (EC50, ng/ml) of 0.2 ng/mL.

B8: ngSTF2.HA1-1His(PR8), produced in Baculovirus (protein)
chain: AQVINTNSLSLLTQNNLQKSQSALGTAIERLSSGLRINSAKDDAAGQAIANRFTANIKGLTQASRNANDGISIAQTTEGALNEINNNLQRVRELAVQSAQSTNSQSDLDSIQAEITQRLNEIDRVSGQTQFNGVKVLAQDNTLTIQVGANDGETIDIDLKQINSQTLGLDSLNVQKAYDVKDTAVTTKAYANQGTTLDVSGLDDAAIKAATGGTQGTASVTGGAVKFDADNNKYFVTIGGFTGADAAKNGDYEVNVATDGTVTLAAGATKTTMPAGATTKTEVQELKDTPAVVSADAKNALIAGGVDATDANGAELVKMSYTDKNGKTIEGGYALKAGDKYYAADYDEATGAIKAKTTSYTAADGTTKTAANQLGGVDGKTEVVTIDGKTYQASKAAGHDFKAQPELAEAAAKTTENPLQKIDAALAQVDALRSDLGAVQNRFNSAITNLGNTVNQLSEARSRIEDSDYATEVSQMSRAQILQQAGTSVLAQANQVPQNVLSLLASGSGSGSSHNGKLCRLKGIAPLQLGKCNIAGWLLGNPECDPLLPVRSWSYIVETPNSENGICYPGDFIDYEELREQLSSVSSFERFEIFPKESSWPNHNTNGVTAACSHEGKSSFYRNLLWLTEKEGSYPKLKNSYVNKKGKEVLVLWGIHHPPNSKEQQNLYQNENAYVSVVTSNYNRRFTPEIAERPKVRDQAGRMNYYWTLLKPGDTIIFEANGNLIAPMYAFALSRGFGSGIITSQASMHECNTKCQTPLGAIQSSLPYQNIHPVTIGECPKYVRHHHHHH
Take B8: the TLR activity (EC50, ng/ml) amounted to 30 ng/mL.
